Experimental findings from doi:10.1101/2023.06.17.545066 (bioRxiv, 2023) are described below.

This series concerns the molecule itself. Put plainly: SEC. For orientation: In gel filtration, larger molecules generally elute earlier.

B1: EcL-TTD αβ heterodimer (complex)
chain 1: MMSESNKQQAVNKLTEIVANFTAMISTRMPDDVVDKLKQLKDAETSSMGKIIYHTMFDNMQKAIDLNRPACQDTGEIMFFVKVGSRFPLLGELQSILKQAVEEATVKAPLRHNAVEIFDEVNTGKNTGSGVPWVTWDIIPDNDDAEIEVYMAGGGCTLPGRSKVLMPSEGYEGVVKFVFENISTLAVNACPPVLVGVGIATSVETAAVLSRKAILRPIGSRHPNPKAAELELRLEEGLNRLGIGPQGLTGNSSVMGVHIESAARHPSTIGVAVSTGCWAHRRGTLLVHADLTFENLSHTRSAL
chain 2: MKKILTTPIKAEDLQDIRVGDVIYLTGTLVTCRDVCHRRLIELKRPIPYDLNGKAIFHAGPIVRKNGDKWEMVSVGPTTSMRMESFEREFIEQTGVKLVVGKGGMGPLTEEGCQKFKALHVIFPAGCAVLAATQVEEIEEVHWTELGMPESLWVCRVKEFGPLIVSIDTHGNNLIAENKKLFAERRDPIVEEICEHVHYIK
For the protein B1, the stoichiometry N – broadly, the number of molecules, sites or subunits per partner or assembly – came out at 2.
